The results in this text go back to US20060084097.

The target in one data set is T1, CysO3H-peptide.
T1 chain: CHGSGAWL

The target of data set [1] is T2, 8-residue Asp-peptide (DHGSGAWL).
T2 chain: CHSGAWL

The target in data set [2] is T3, 8-residue Cys-peptide (CHGSGAWL).
T3 chain: CHGSGAWL

Data set [3] concerns the target Asp-RGS4 (X-RGS4-flag, X=Asp).
Data set [4] concerns the target Cys-RGS4 (X-RGS4-flag, X=Cys).
In data set [5] the target is Val-RGS4 (X-RGS4-flag, X=Val).

B1: S. cerevisiae ATE1 Arg-tRNA-protein transferase C-terminally tagged with His6 (protein)
chain: MSDRFVIWAPSMHNEPAAKCGYCHGNKGGNMDQLFALDSWAHRYMNKMDVVKIENCTIGSFVEHMDVATYDRMCNMGFRRSGKFLYKVDPLRNCCRLYTIRTAPQELNMTKELKKCISRFATRITSEDYCPAAVASSDFVGKIVNAEMNSKTFYTRFEPALYSEEKYHLFVKYQEKVHQDYNNSPKSFKRFLCDTPFGPEAVLGTQESWEQLNNWQRMKPGEKLKHMGPVHECYYYEGKLIAITVSDILPSGISSVYFIWDPDYSKWSLGKLSALRDLAIIQRTNLQYYYLGYYIEDCPKMNYKANYGAEVLDVCHSKYIPLKPIQDMISRGKLFVIGEEETKVTKELYLVDSETGRGEGFPTDNVVKYKNIAEEIYGVGGCAFKSANESALELKELYGIPYEEEDLDTIYHLKEHNGHAPNGIPNVVPGLLPLWELLDIMQSGKITDLEGRLFLFEIETEGIRPLINFYSEPPNVKKRICDVIRLFGFETCMKAVILYSEQMHHHHHH
Take B1: the “arginylation of peptide (capillary electrophoresis)” value with CysO3H-peptide is listed as “Yeast R-transferase efficiently arginylated CysO3H-peptide, but not Cys-peptide”; in data set [1], “The same results were obtained when mouse ATE1-1 was replaced, in the above assays, with purified S. cerevisiae ATE1 R-transferase”; in data set [2], “Yeast R-transferase efficiently arginylated CysO3H-peptide, but not Cys-peptide”.

B2: mouse ATE1-1 R-transferase C-terminally tagged with the polyoma and His6 epitopes (protein)
chain: MASWSAPSPSLVEYFEGQTSFQCGYCKNKLGSRSYGMWAHSMTVQDYQDLIDRGWRRSGKYVYKPVMDQTCCPQYTIRCHPLQFQPSKSHKKVLKKMLKFLAKGEISKGNCEDEPMDSTVEDAVDGDFALINKLDIKCDLKTLSDLKGSIESEEKEKEKSIKKEGSKEFIHPQSIEEKLGSGEPSHPIKVHIGPKPGKGADLSKPPCRKAREMRKERQRLKRMQQASAAASEAQGQPVCLLPKAKSNQPKSLEDLIFQSLPENASHKLEVRVVRSSPPSPQFRATFQESYQVYKRYQMVVHKDPPDKPTVSQFTRFLCSSPLEAEHPADGPECGYGSFHQQYWLDGKIIAVGVLDILPYCVSSVYLYYDPDYSFLSLGVYSALREIAFTRQLHEKTSQLSYYYMGFYIHSCPKMRYKGQYRPSDLLCPETYVWVPIEQCLPSLDNSKYCRFNQDPEAEDEGRSKELDRLRVFHRRSAMPYGVYKNHQEDPSEEAGVLEYANLVGQKCSERMLLFRHHHHHHH
As for B2, the entries for the “3H-arginine conjugation (SDS-PAGE and fluorography)” value in data set [3], in data set [4] and in data set [5] were “Asp-RGS4 was efficiently arginylated irrespective of NO pretreatment”, “a virtually complete dependence of the in vitro arginylation of Cys-RGS4 on its prior exposure to a donor of NO” and “Val-RGS4 was not arginylated”, respectively. The “arginylation of peptide (capillary electrophoresis, MALDI-TOF MS), pH 7.5” value with CysO3H-peptide is “the Asp-peptide and the CysO3H-peptide were efficiently arginylated”; in data set [1], “the Asp-peptide and the CysO3H-peptide were efficiently arginylated”; in data set [2] it was “the Cys-peptide was not arginylated”. Besides, the “arginylation of peptide (capillary electrophoresis), pH 9.0” value in data set [2] is “arginylation of Cys-peptide was undetectable even at pH 9.0, in contrast to arginylation of CysO3H-peptide and Asp-peptide”.
